target: HLA-B*07 (Homo sapiens, UniProt P01889); assay: MHC binding assay (UV-ligand exchange, ELISA of stabilized MHC complexes); conditions: peptide exchange yield on HLA-B*07, UV-ligand exchange
Method in brief: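 Peptide–MHC complexes were made by UV-ligand exchange, in which a UV-cleavable peptide is replaced by the test peptide. Exchange yield was measured by ELISA of stabilized complexes on streptavidin-coated plates, using HRP anti-β2m detection (1 h, 37 °C), TMB substrate and absorbance at 450 nm.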

Substance	Peptide exchange
275 (IPAPQGAVL; listed as Homo sapiens) [compound 275]	+++ (>50 = +++)
276 (RPVWDVRSA; listed as Homo sapiens) [compound 276]	++++ (>75% = ++++)
277 (MPPLLIVAF; listed as Homo sapiens) [compound 277]	++ (>20% = ++)
278 (LIAARGSLVL; listed as Homo sapiens) [compound 278]	+++ (>50 = +++)
279 (APADEPRTVL; listed as Homo sapiens) [compound 279]	+++ (>50 = +++)
280 (LPRAFLQSL; listed as Homo sapiens) [compound 280]	++++ (>75% = ++++)
281 (NPRSPPATM; listed as Homo sapiens) [compound 281]	++++ (>75% = ++++)
282 (AVRLPTPNL; listed as Homo sapiens) [compound 282]	++++ (>75% = ++++)
283 (RPQPGWRESL; listed as Homo sapiens) [compound 283]	++++ (>75% = ++++)
284 (RPSAPRGPP; listed as Homo sapiens) [compound 284]	++++ (>75% = ++++)
285 (RITWKGLLL; listed as Homo sapiens) [compound 285]	+++ (>50 = +++)
286 (APARPAAAF; listed as Homo sapiens) [compound 286]	++++ (>75% = ++++)
287 (SPIPRPLFL; listed as Homo sapiens) [compound 287]	++++ (>75% = ++++)
288 (LHAMNSLSAM; listed as Homo sapiens) [compound 288]	+++ (>50 = +++)
289 (LPYEKVSRL; listed as Homo sapiens) [compound 289]	+++ (>50 = +++)
290 (RPTHPLRSF; listed as Homo sapiens) [compound 290]	++++ (>75% = ++++)
291 (SPSKSLEM; listed as Homo sapiens) [compound 291]	+++ (>50 = +++)
292 (LPMTHRLQL; listed as Homo sapiens) [compound 292]	+++ (>50 = +++)
293 (FPYDKPLIM; listed as Homo sapiens) [compound 293]	++++ (>75% = ++++)
294 (VPKPAIPSSSVL; listed as Homo sapiens) [compound 294]	++++ (>75% = ++++)
295 (HPRWIEPTVM; listed as Homo sapiens) [compound 295]	++++ (>75% = ++++)
296 (SPLLMQRTL; listed as Homo sapiens) [compound 296]	++++ (>75% = ++++)
298 (RVLLRWISL; listed as Homo sapiens) [compound 298]	+++ (>50 = +++)
299 (SPFSGGPVSF; listed as Homo sapiens) [compound 299]	++++ (>75% = ++++)
300 (HPYSDLADVF; listed as Homo sapiens) [compound 300]	+++ (>50 = +++)
301 (FPAFLEAM; listed as Homo sapiens) [compound 301]	+++ (>50 = +++)
302 (IPIDQILNSF; listed as Homo sapiens) [compound 302]	+++ (>50 = +++)

Substance	Peptide exchange
303 (RPPPPCIAL; listed as Homo sapiens) [compound 303]	++++ (>75% = ++++)
304 (SPLIGDFPAF; listed as Homo sapiens) [compound 304]	++ (>20% = ++)
305 (AASPVGSAL; listed as Homo sapiens) [compound 305]	+++ (>50 = +++)
306 (RPFPLALL; listed as Homo sapiens) [compound 306]	+++ (>50 = +++)
307 (RPHQKGWLSI; listed as Homo sapiens) [compound 307]	+++ (>50 = +++)
308 (RPDVVRTLL; listed as Homo sapiens) [compound 308]	++++ (>75% = ++++)
309 (FAFYGGKSL; listed as Homo sapiens) [compound 309]	+++ (>50 = +++)
310 (SPGWAQTQL; listed as Homo sapiens) [compound 310]	++++ (>75% = ++++)
311 (APRLALDPDAL; listed as Homo sapiens) [compound 311]	++++ (>75% = ++++)
312 (SPSLQSSRESL; listed as Homo sapiens) [compound 312]	+++ (>50 = +++)
313 (VPLSSYVSI; listed as Homo sapiens) [compound 313]	++++ (>75% = ++++)
314 (IALMKLAGPL; listed as Homo sapiens) [compound 314]	++ (>20% = ++)
315 (APVVFPAL; listed as Homo sapiens) [compound 315]	++++ (>75% = ++++)
316 (NPREPEKSL; listed as Homo sapiens) [compound 316]	+++ (>50 = +++)
317 (MPYNSAHHCVV; listed as Homo sapiens) [compound 317]	++++ (>75% = ++++)
318 (TPISNTGVL; listed as Homo sapiens) [compound 318]	++++ (>75% = ++++)
319 (RPLDTFRVL; listed as Homo sapiens) [compound 319]	++++ (>75% = ++++)
320 (APMHIDRNIL; listed as Homo sapiens) [compound 320]	++++ (>75% = ++++)
321 (QPQQPGFFL; listed as Homo sapiens) [compound 321]	+++ (>50 = +++)
322 (RAVPVGSGL; listed as Homo sapiens) [compound 322]	+++ (>50 = +++)
323 (TPHGITDIL; listed as Homo sapiens) [compound 323]	++++ (>75% = ++++)
324 (LPAPLRISL; listed as Homo sapiens) [compound 324]	++++ (>75% = ++++)
325 (SPRSNPVRL; listed as Homo sapiens) [compound 325]	++++ (>75% = ++++)
327 (GPRTTQSSVL; listed as Homo sapiens) [compound 327]	++++ (>75% = ++++)
328 (LPLHRGDLVI; listed as Homo sapiens) [compound 328]	+++ (>50 = +++)
329 (QPANFIVLL; listed as Homo sapiens) [compound 329]	+++ (>50 = +++)
330 (RPFSAIAEL; listed as Homo sapiens) [compound 330]	++++ (>75% = ++++)

Next, values leading:

Peptide exchange	Substance
+++ (>50 = +++)	331 (SPDSAILKL; listed as Homo sapiens) [compound 331]
++++ (>75% = ++++)	332 (SPYAGSTAF; listed as Homo sapiens) [compound 332]
+++ (>50 = +++)	333 (SVLPRALSL; listed as Homo sapiens) [compound 333]
++++ (>75% = ++++)	334 (YPLSLALHF; listed as Homo sapiens) [compound 334]
+++ (>50 = +++)	335 (VPPQNPRPSL; listed as Homo sapiens) [compound 335]
+++ (>50 = +++)	336 (YPLQGPGLLSV; listed as Homo sapiens) [compound 336]
++++ (>75% = ++++)	337 (IPTSRVITL; listed as Homo sapiens) [compound 337]
+++ (>50 = +++)	338 (MPATPSLKV; listed as Homo sapiens) [compound 338]
+++ (>50 = +++)	339 (GPQRTTSV; listed as Homo sapiens) [compound 339]
+++ (>50 = +++)	340 (APEPRAALL; listed as Homo sapiens) [compound 340]
++++ (>75% = ++++)	341 (LPRSPPLKVL; listed as Homo sapiens) [compound 341]
+++ (>50 = +++)	342 (RPRPPKVL; listed as Homo sapiens) [compound 342]
+++ (>50 = +++)	343 (RPRPPKVLGL; listed as Homo sapiens) [compound 343]
++++ (>75% = ++++)	344 (VPYPSPTCV; listed as Homo sapiens) [compound 344]
+++ (>50 = +++)	345 (SAAPPGASL; listed as Homo sapiens) [compound 345]
++++ (>75% = ++++)	346 (IPMPRITWL; listed as Homo sapiens) [compound 346]
++++ (>75% = ++++)	347 (SPLEKINSF; listed as Homo sapiens) [compound 347]
+++ (>50 = +++)	348 (HPAPPVTSA; listed as Homo sapiens) [compound 348]
++++ (>75% = ++++)	349 (QPRDGWPMML; listed as Homo sapiens) [compound 349]
++++ (>75% = ++++)	350 (RPKSTLMNF; listed as Homo sapiens) [compound 350]
+++ (>50 = +++)	351 (SPYADIIPSA; listed as Homo sapiens) [compound 351]
++++ (>75% = ++++)	352 (LPAFSKIGGIL; listed as Homo sapiens) [compound 352]
+++ (>50 = +++)	353 (KPRATWTL; listed as Homo sapiens) [compound 353]
++++ (>75% = ++++)	354 (APAKDARASL; listed as Homo sapiens) [compound 354]
++++ (>75% = ++++)	355 (APKTSFIAA; listed as Homo sapiens) [compound 355]
+++ (>50 = +++)	356 (RPFLRLPSL; listed as Homo sapiens) [compound 356]
